Molecular target: T1, HA-Halo-MRAP2 (human), Q96G30
T1 chain: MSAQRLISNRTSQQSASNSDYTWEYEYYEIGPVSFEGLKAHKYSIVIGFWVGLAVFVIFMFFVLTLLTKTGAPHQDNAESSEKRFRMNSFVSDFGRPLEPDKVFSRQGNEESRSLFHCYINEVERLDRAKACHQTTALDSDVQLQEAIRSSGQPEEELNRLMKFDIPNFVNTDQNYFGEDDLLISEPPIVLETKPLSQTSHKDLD
Experiment: single-molecule pull-down (SiMPull); one-colour SiMPull with photobleaching step analysis: HA-Halo-tagged protein labelled on HEK293 cells with membrane-impermeable CA-Sulfo646, lysed in 0.5% LMNG/0.05% CHS, immobilised by biotinylated anti-HA antibody on a PEG-passivated slide, TIRF imaging
Conditions: remark: other sources report otherwise

B1: HA-Halo-MRAP2, Q96G30 1-205 (natural protein)
chain: MSAQRLISNRTSQQSASNSDYTWEYEYYEIGPVSFEGLKAHKYSIVIGFWVGLAVFVIFMFFVLTLLTKTGAPHQDNAESSEKRFRMNSFVSDFGRPLEPDKVFSRQGNEESRSLFHCYINEVERLDRAKACHQTTALDSDVQLQEAIRSSGQPEEELNRLMKFDIPNFVNTDQNYFGEDDLLISEPPIVLETKPLSQTSHKDLD
modifications: here or on the partner: CA-Sulfo646 dye on the Halo tag; CA-Sulfo646 dye on the Halo tag
B1 showed a percent of molecules with one bleaching step of 68%, a percent of molecules with three or four bleaching steps of under 5% and a percent of molecules with two bleaching steps of 28%.

Reference: paper doi:10.1101/2024.11.06.622243
